Test results as given in US20140274782A1, “AFFINITY REAGENTS AND METHODS FOR DETECTION, PURIFICATION, AND PROTEOMIC ANALYSIS OF METHYLATED PROTEINS” (The Board of Trustees of the Leland Stanford Junior …, priority 2013, published 2014).

What was measured:
[1] = system: 3×MBT domain of L3MBTL1; assay: Triple SILAC pull-down, 3xMBT/3xMBTD355N ratio (cytoplasmic, nuclear and chromatin fractions of 293T cells); assay type: binding, human; conditions: SILAC ratio, pull-down 3xMBT vs 3xMBTD355N; for 3xMBT/D355N UNC Heavy: experiment with UNC0638 in heavy SILAC media; for 3xMBT/D355N UNC Light: experiment with UNC0638 in light SILAC media;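 as to all read-outs here: proteins quantified with MaxQuant, requiring at least two unique peptides and quantification in both label directions, normalized to the mean of proteins from a digested loading control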
[2] = target: T1, G9a and GLP (Homo sapiens, UniProt Q96KQ7+Q9H9B1); assay: Triple SILAC pull-down after UNC0638 treatment of 293T cells, DMSO/UNC0638 ratio of protein captured by 3×MBT; assay type: cell-based; set-up: cells were treated for 24 hours with UNC0638 at 2.5 μM or DMSO vehicle control; endogenous in cells; host or cells: HEK 293T; conditions: for Relative to UNC0638 UNC Heavy / Relative to UNC0638 UNC Light: SILAC ratio DMSO/UNC0638 of protein pulled down with 3xMBT; for Relative to UNC0638 UNC Heavy: UNC0638 in heavy SILAC media; for Relative to UNC0638 UNC Light: UNC0638 in light SILAC media; for Relative to UNC0638 Average: average of UNC Light and UNC Heavy experiments;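 as to all read-outs here: mass spectrometry (Q-Exactive) SILAC quantitation, DMSO/UNC0638 ratio computed after subtracting 3×MBTD355N mutant pull-down background, only proteins with at least twofold 3×MBT over mutant signal considered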
T1 sequence (Q96KQ7 2-1210 limits assumed): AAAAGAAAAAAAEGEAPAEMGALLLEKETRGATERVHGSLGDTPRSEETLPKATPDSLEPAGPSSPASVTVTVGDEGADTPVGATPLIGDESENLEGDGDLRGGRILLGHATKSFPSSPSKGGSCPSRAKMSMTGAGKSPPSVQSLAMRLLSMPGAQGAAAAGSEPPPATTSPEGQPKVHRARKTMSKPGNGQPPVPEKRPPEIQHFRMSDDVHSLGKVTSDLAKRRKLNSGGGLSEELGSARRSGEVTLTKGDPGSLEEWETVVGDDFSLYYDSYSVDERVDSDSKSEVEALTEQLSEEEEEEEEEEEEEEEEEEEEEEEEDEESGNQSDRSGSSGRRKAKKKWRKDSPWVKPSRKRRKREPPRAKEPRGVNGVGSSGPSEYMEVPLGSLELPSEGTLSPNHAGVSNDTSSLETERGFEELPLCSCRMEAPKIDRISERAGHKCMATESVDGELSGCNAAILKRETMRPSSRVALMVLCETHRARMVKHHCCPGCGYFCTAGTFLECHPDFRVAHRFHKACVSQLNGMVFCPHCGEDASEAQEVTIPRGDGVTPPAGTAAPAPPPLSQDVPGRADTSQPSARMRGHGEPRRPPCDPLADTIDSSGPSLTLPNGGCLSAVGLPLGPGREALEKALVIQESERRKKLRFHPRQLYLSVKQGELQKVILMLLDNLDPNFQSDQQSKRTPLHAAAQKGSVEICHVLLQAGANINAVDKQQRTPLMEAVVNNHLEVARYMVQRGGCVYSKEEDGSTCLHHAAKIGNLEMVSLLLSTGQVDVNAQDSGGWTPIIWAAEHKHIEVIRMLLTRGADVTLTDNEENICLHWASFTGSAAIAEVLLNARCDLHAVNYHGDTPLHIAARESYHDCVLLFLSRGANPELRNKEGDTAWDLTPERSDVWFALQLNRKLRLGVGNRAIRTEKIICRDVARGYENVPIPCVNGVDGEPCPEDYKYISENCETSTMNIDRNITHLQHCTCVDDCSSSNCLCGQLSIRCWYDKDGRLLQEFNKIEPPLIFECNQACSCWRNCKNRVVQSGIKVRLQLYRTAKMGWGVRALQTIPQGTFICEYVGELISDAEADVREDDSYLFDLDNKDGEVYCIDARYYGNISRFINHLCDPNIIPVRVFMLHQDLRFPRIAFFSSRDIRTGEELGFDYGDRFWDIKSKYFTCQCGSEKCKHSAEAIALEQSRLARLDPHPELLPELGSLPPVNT
T1 sequence (Q9H9B1 2-1298 limits assumed): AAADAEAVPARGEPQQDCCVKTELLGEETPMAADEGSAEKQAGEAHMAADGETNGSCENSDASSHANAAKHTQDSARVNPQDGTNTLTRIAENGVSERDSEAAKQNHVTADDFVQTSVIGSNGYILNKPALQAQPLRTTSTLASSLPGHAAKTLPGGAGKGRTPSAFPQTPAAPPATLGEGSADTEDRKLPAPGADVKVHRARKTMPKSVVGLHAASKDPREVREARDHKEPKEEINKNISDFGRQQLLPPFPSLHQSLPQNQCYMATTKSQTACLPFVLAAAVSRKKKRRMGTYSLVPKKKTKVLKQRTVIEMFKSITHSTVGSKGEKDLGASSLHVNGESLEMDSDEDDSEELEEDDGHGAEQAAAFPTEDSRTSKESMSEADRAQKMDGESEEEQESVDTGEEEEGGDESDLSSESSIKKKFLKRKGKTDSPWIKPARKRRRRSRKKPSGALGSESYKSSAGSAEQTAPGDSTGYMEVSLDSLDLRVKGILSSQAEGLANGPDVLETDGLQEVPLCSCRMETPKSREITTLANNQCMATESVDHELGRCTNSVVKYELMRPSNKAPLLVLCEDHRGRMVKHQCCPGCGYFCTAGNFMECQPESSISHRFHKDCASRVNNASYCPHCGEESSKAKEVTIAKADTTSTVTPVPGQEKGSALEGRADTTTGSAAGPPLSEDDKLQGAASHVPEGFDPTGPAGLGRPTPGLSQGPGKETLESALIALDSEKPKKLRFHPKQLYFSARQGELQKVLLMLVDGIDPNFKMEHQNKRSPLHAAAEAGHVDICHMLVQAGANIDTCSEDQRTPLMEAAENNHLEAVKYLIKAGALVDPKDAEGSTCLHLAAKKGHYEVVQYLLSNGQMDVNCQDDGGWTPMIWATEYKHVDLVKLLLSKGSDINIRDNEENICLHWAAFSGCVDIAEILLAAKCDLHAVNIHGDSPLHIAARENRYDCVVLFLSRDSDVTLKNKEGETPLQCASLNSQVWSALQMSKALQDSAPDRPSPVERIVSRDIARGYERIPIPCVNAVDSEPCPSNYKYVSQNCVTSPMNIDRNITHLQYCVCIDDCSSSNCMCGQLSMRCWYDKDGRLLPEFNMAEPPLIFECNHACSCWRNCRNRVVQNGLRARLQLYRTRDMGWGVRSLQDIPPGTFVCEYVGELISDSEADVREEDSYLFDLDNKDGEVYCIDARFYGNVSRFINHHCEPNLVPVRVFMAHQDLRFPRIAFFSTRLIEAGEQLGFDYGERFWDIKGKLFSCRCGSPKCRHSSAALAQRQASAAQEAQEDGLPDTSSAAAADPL

Molecule | 3xMBT/D355N UNC Heavy [1] | 3xMBT/D355N UNC Light [1] | Relative to UNC0638 UNC Heavy [2] | Relative to UNC0638 UNC Light [2] | Relative to UNC0638 Average [2]
SEC23B (protein, UniProt Q15437 2-767, looked up) Protein transport protein …: ATYLEFIQQNEERDGVRFSWNVWPSSRLEATRMVVPLACLLTPLKERPDLPPVQYEPVLCSRPTCKAVLNPLCQVDYRAKLWACNFCFQRNQFPPAYGGISEVNQPAELMPQFSTIEYVIQRGAQSPLIFLYVVDTCLEEDDLQALKESLQMSLSLLPPDALVGLITFGRMVQVHELSCEGISKSYVFRGTKDLTAKQIQDMLGLTKPAMPMQQARPAQPQEHPFASSRFLQPVHKIDMNLTDLLGELQRDPWPVTQGKRPLRSTGVALSIAVGLLEGTFPNTGARIMLFTGGPPTQGPGMVVGDELKIPIRSWHDIEKDNARFMKKATKHYEMLANRTAANGHCIDIYACALDQTGLLEMKCCANLTGGYMVMGDSFNTSLFKQTFQRIFTKDFNGDFRMAFGATLDVKTSRELKIAGAIGPCVSLNVKGPCVSENELGVGGTSQWKICGLDPTSTLGIYFEVVNQHNTPIPQGGRGAIQFVTHYQHSSTQRRIRVTTIARNWADVQSQLRHIEAAFDQEAAAVLMARLGVFRAESEEGPDVLRWLDRQLIRLCQKFGQYNKEDPTSFRLSDSFSLYPQFMFHLRRSPFLQVFNNSPDESSYYRHHFARQDLTQSLIMIQPILYSYSFHGPPEPVLLDSSSILADRILLMDTFFQIVIYLGETIAQWRKAGYQDMPEYENFKHLLQAPLDDAQEILQARFPMPRYINTEHGGSQARFLLSKVNPSQTHNNLYAWGQETGAPILTDDVSLQVFMDHLKKLAVSSAC | 3.24 log base 2 | 3.16 log base 2 | 0.17 log base 2 | 0.24 log base 2 | 0.21 log base 2
DDX5 (protein, UniProt P17844 1-614, looked up) Probable ATP-dependent RNA …: MSGYSSDRDRGRDRGFGAPRFGGSRAGPLSGKKFGNPGEKLVKKKWNLDELPKFEKNFYQEHPDLARRTAQEVETYRRSKEITVRGHNCPKPVLNFYEANFPANVMDVIARQNFTEPTAIQAQGWPVALSGLDMVGVAQTGSGKTLSYLLPAIVHINHQPFLERGDGPICLVLAPTRELAQQVQQVAAEYCRACRLKSTCIYGGAPKGPQIRDLERGVEICIATPGRLIDFLECGKTNLRRTTYLVLDEADRMLDMGFEPQIRKIVDQIRPDRQTLMWSATWPKEVRQLAEDFLKDYIHINIGALELSANHNILQIVDVCHDVEKDEKLIRLMEEIMSEKENKTIVFVETKRRCDELTRKMRRDGWPAMGIHGDKSQQERDWVLNEFKHGKAPILIATDVASRGLDVEDVKFVINYDYPNSSEDYIHRIGRTARSTKTGTAYTFFTPNNIKQVSDLISVLREANQAINPKLLQLVEDRGSGRSRGRGGMKDDRRDRYSAGKRGGFNTFRDRENYDRGYSSLLKRDFGAKTQNGVYSAANYTNGSFGSNFVSAGIQTSFRTGNPTGTYQNGYDSTQQYGSNVPNMHNGMNQQAYAYPATAAAPMIGYPMPTGYSQ | 3.00 log base 2 | 2.92 log base 2 | 0.31 log base 2 | 0.10 log base 2 | 0.20 log base 2
ATXN2L (protein, UniProt Q8WWM7 1-1075, looked up) Ataxin-2-like protein: MLKPQPLQQPSQPQQPPPTQQAVARRPPGGTSPPNGGLPGPLATSAAPPGPPAAASPCLGPVAAAGSGLRRGAEGILAPQPPPPQQHQERPGAAAIGSARGQSTGKGPPQSPVFEGVYNNSRMLHFLTAVVGSTCDVKVKNGTTYEGIFKTLSSKFELAVDAVHRKASEPAGGPRREDIVDTMVFKPSDVMLVHFRNVDFNYATKDKFTDSAIAMNSKVNGEHKEKVLQRWEGGDSNSDDYDLESDMSNGWDPNEMFKFNEENYGVKTTYDSSLSSYTVPLEKDNSEEFRQRELRAAQLAREIESSPQYRLRIAMENDDGRTEEEKHSAVQRQGSGRESPSLASREGKYIPLPQRVREGPRGGVRCSSSRGGRPGLSSLPPRGPHHLDNSSPGPGSEARGINGGPSRMSPKAQRPLRGAKTLSSPSNRPSGETSVPPPPAVGRMYPPRSPKSAAPAPISASCPEPPIGSAVPTSSASIPVTSSVSDPGVGSISPASPKISLAPTDVKELSTKEPGRTLEPQELARIAGKVPGLQNEQKRFQLEELRKFGAQFKLQPSSSPENSLDPFPPRILKEEPKGKEKEVDGLLTSEPMGSPVSSKTESVSDKEDKPPLAPSGGTEGPEQPPPPCPSQTGSPPVGLIKGEDKDEGPVAEQVKKSTLNPNAKEFNPTKPLLSVNKSTSTPTSPGPRTHSTPSIPVLTAGQSGLYSPQYISYIPQIHMGPAVQAPQMYPYPVSNSVPGQQGKYRGAKGSLPPQRSDQHQPASAPPMMQAAAAAGPPLVAATPYSSYIPYNPQQFPGQPAMMQPMAHYPSQPVFAPMLQSNPRMLTSGSHPQAIVSSSTPQYPSAEQPTPQALYATVHQSYPHHATQLHAHQPQPATTPTGSQPQSQHAAPSPVQHQAGQAPHLGSGQPQQNLYHPGALTGTPPSLPPGPSAQSPQSSFPQPAAVYAIHHQQLPHGFTNMAHVTQAHVQTGITAAPPPHPGAPHPPQVMLLHPPQSHGGPPQGAVPQSGVPALSASTPSPYPYIGHPQGEQPGQAPGFPGGADDRIREFSLAGGIWHGRAEGLQVGQDARVLGGE | 2.64 log base 2 | 2.66 log base 2 | 0.31 log base 2 | 0.12 log base 2 | 0.21 log base 2
CRKL (protein, UniProt P46109 1-303, looked up) Crk-like protein: MSSARFDSSDRSAWYMGPVSRQEAQTRLQGQRHGMFLVRDSSTCPGDYVLSVSENSRVSHYIINSLPNRRFKIGDQEFDHLPALLEFYKIHYLDTTTLIEPAPRYPSPPMGSVSAPNLPTAEDNLEYVRTLYDFPGNDAEDLPFKKGEILVIIEKPEEQWWSARNKDGRVGMIPVPYVEKLVRSSPHGKHGNRNSNSYGIPEPAHAYAQPQTTTPLPAVSGSPGAAITPLPSTQNGPVFAKAIQKRVPCAYDKTALALEVGDIVKVTRMNINGQWEGEVNGRKGLFPFTHVKIFDPQNPDENE | 1.16 log base 2 | 1.59 log base 2 | 0.37 log base 2 | 0.03 log base 2 | 0.20 log base 2
